Results reported in patent US20230399641A1 (SHANGHAITECH UNIVERSITY, published 2023).

Molecular target: extracellular protease domain of wildtype human ACE2 (residues 19-615) (human, UniProt Q9BYF1 19-615)
Sequence (Q9BYF1 19-615): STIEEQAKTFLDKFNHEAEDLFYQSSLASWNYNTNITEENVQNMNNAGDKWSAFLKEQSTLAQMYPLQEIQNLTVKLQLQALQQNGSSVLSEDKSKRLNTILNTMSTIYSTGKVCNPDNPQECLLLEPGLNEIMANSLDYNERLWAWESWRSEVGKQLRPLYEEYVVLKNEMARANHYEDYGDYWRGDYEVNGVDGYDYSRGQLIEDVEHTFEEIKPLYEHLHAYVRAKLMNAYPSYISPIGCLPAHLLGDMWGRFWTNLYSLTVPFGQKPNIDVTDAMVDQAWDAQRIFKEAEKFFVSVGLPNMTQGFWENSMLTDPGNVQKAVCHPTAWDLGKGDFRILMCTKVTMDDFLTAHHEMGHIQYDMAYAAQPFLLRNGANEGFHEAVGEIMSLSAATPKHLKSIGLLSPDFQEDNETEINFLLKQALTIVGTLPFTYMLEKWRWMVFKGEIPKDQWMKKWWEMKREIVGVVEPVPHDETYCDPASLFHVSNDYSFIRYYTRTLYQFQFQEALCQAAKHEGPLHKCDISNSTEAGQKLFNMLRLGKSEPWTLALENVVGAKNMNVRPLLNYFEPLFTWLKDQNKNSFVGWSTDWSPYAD

B1: receptor binding domain (RBD) of HCoV-NL63 spike (residues 481-616) (ligand)
chain: QHTDINFTATASFGGSCYVCKPHQVNISLNGNTSVCVRTSHFSIRYIYNRVKSGSPGDSSWHIYLKSGTCPFSFSKLNNFQKFKTICFSTVEVPGSCNFPLEATWHYTSYTIVGALYVTWSEGNSITGVPYPVSGI
For B1, which Kd is on record?
Its Kd is 430 nM.
